Substitutions are numbered along the chain they refer to.

For one experiment, the target named is T1, human Factor XIIa-alpha (human, UniProt P00748 20-615).
T1 sequence: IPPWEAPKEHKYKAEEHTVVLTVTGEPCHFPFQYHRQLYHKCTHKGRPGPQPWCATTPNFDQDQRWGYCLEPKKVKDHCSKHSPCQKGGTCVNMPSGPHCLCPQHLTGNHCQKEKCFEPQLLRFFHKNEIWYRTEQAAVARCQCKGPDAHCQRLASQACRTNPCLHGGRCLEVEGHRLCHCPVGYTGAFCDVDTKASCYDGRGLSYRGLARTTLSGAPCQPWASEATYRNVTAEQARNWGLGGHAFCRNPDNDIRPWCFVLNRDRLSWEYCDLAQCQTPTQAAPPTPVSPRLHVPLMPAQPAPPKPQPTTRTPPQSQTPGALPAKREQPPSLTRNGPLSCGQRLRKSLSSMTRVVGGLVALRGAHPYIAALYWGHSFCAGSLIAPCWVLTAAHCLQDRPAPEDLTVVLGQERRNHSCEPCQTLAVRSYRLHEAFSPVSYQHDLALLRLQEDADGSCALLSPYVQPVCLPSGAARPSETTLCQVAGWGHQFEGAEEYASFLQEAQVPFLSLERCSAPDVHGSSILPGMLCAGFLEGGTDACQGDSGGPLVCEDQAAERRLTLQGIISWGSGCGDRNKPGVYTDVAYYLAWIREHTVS
The experiment can be described thus: cell-based or functional assay.

For experiment [1], the target named is T2, human Factor XIIa-beta (human, UniProt P00748 354-615, limits assumed).
T2 construct: Bought from Enzyme Research Laboratories; also called FXIIa beta; FXIIa-beta
T2 sequence: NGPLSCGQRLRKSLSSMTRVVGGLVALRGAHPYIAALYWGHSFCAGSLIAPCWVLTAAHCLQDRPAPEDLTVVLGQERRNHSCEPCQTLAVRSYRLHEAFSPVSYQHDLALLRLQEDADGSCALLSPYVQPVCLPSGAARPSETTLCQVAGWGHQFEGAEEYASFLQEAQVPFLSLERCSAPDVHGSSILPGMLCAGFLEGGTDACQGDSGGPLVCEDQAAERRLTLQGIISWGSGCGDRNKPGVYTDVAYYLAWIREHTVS
Put plainly: SPR (Biacore), KD against parental 3F7. In general terms: In SPR one partner is held on a chip, and binding of the other changes the refractive index at the surface.

Experiment [2] concerns the target T2, human Factor XIIa-beta. The experiment can be described thus: SPR (Biacore), purified IgG captured on anti-human IgG, FXIIa beta 0-40 nM, 1:1 fit, 25 C.
A further experiment has as its target T3, G472S.
T3 construct: also called Mu-FXII G472S mutant with C-terminal 8xHis-tag; mutant k)
T3 single chain: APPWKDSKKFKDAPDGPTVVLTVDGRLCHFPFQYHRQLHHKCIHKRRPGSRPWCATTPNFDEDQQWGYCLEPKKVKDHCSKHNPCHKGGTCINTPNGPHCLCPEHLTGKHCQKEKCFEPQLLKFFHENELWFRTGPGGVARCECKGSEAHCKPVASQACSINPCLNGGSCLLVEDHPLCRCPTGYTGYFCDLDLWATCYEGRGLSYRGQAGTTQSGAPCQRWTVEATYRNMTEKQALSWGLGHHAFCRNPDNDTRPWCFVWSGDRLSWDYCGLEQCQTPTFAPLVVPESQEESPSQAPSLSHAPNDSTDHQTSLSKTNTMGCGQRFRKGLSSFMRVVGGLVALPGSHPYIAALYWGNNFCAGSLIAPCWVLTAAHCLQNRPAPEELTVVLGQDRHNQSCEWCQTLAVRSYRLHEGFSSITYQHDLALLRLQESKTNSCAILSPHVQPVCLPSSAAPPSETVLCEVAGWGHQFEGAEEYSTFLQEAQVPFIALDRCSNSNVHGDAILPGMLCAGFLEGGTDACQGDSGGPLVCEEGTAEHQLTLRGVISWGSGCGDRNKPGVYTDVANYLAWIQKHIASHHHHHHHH
Put plainly: Western blot of culture supernatant (non-reducing SDS-PAGE) probed with 3F7 mAb, anti-human IgG-FITC. The method, then: (§1) Proteins were then transferred electrophoretically onto nitrocellulose filters and blocked for 1 hour in 5% Milk powder in Tris-buffered saline with 0.05% Tween-20 (TTBS). Filters were then incubated for 1 hour with either 3F7 mAb or an anti-His mAb 3H3 (both at […] in TTBS with 5% Milk powder), washed thoroughly with TTBS, then incubated for a further hour with anti-human IgG-FITC or anti-mouse IgG-FITC, respectively (Millipore, USA; both at 0.25 mg/ml in TTBS with 5% Milk powder). Following further washing of membranes in TTBS, Ab-FITC bound proteins were visualized using a Typhoon variable mode analyzer (GE Healthcare, USA).

The target of another experiment is T4, A385D.
T4 construct: also called Mu-FXII A385D mutant with C-terminal 8xHis-tag; mutant b)
T4 single chain: T3 single chain with A366D, S453G
The description is as above. The method, then:
as §1

B1: monoclonal antibody 3F7 (fully human IgG4/lambda) (antibody, V domains shown)
VH: EVQLLESGGGLVQPGGSLRLSCAASGFTFSKYIMQWVRQAPGKGLEWVSGIRPSGGTTVYADSVKGRFTISRDNSKNTLYLQMNSLRAEDTAVYYCARALPRSGYLISPHYYYYALDVWGQGTTVTVSS
VL: QSELTQPPSASGTPGQRVTISCSGSSSNIGRNYVYWYQQVPGTAPKLLIYSNNQRPSGVPDRFSGSKSGTSASLVISGLRSEDEADYYCAAWDASLRGVFGGGTKLTVLG
notes: also called 3F7 mAb; MAb 3F7
Broadly, the Kd is the concentration at which binding is half-saturated. In the case of B1, in the experiment with human Factor XIIa-alpha, the “% Inhibition, ratio FXIIa-alpha:Antibody 1:0.1” value was determined as 35.5%; the “% Inhibition, ratio FXIIa-alpha:Antibody 1:0.1 (second 3F7 block)” value was 38.3%; the “% Inhibition, ratio FXIIa-alpha:Antibody 1:0.2” value was 62.5%; the “% Inhibition, ratio FXIIa-alpha:Antibody 1:0.2 (second 3F7 block)” value is 66.8%. In the experiment with human Factor XIIa-alpha, the “% Inhibition, ratio FXIIa-alpha:Antibody 1:0.5” value amounted to 91.9%; the “% Inhibition, ratio FXIIa-alpha:Antibody 1:0.5 (second 3F7 block)” value is 91.4%; the “% Inhibition, ratio FXIIa-alpha:Antibody 1:1” value turned out to be 97.9%; the “% Inhibition, ratio FXIIa-alpha:Antibody 1:1 (second 3F7 block)” value was found to be 96.1%. In the experiment with human Factor XIIa-alpha, the “% Inhibition, ratio FXIIa-alpha:Antibody 1:2” value was 100%; the “% Inhibition, ratio FXIIa-alpha:Antibody 1:2 (second 3F7 block)” value turned out to be 100%; the “% Inhibition, ratio FXIIa-alpha:Antibody 1:5” value was 100%; the “% Inhibition, ratio FXIIa-alpha:Antibody 1:5 (second 3F7 block)” value was determined as 100%. In the experiment with human Factor XIIa-alpha, the “% Inhibition, ratio FXIIa-alpha:Antibody 1:10” value came to 100% and the “% Inhibition, ratio FXIIa-alpha:Antibody 1:10 (second 3F7 block)” value came to 100%. In the experiment with human Factor XIIa-beta [1], the Fold affinity improvement amounted to 1 fold. This molecule also gave a Kd in the experiment with human Factor XIIa-beta [2] of 6.2 nM. The binding result in the experiment with G472S was “binds”. For the same molecule, the binding result with A385D was “binds”.

The values above are taken from patent US20200062863A1 (CSL BEHRING, published 2020).
